Assay results published in patent US20250082770A1 (SYNAFFIX B V, published 2025).

B1: tusamitamab-DM4 (antibody, human IgG1, kappa, V domains shown)
VH: EVQLQESGPGLVKPGGSLSLSCAASGFVFSSYDMSWVRQTPERGLEWVAYISSGGGITYAPSTVKGRFTVSRDNAKNTLYLQMNSLTSEDTAVYYCAAHYFGSSGPFAYWGQGTLVTVSS
VL: DIQMTQSPASLSASVDRVTITCRASENIFSYLAWYQQKPGKSPKLLVYNTRTLAEGVPSRFSGSGSGTDFSLTISSLQPEDFATYYCQHHYGTPFTFGSGTKLEIKR
modifications: SPDB-DM4 conjugated, sites not stated; average DAR 3.4
B2: tusamitamab (antibody, human IgG1, kappa, V domains shown)
VH: B1 VH
VL: B1 VL
notes: IgG transiently expressed in CHO K1 cells; also called tusamitamab (I); huMAb2-3
B3: tusamitamab-3 (antibody, human IgG1, kappa, V domains shown)
VH: B1 VH
VL: B1 VL
modifications: heavy-chain glycan trimmed to core GlcNAc, 6-N3-GalNAc attached and reacted with BCN-HS-PEG2-HS-(va-PAB-Ex)2 3 (exatecan payload); average DAR 3.89
B4: tusamitamab-6 (antibody, human IgG1, kappa, V domains shown)
VH: B1 VH
VL: B1 VL
modifications: heavy-chain glycan trimmed to core GlcNAc, 6-N3-GalNAc attached and reacted with BCN-HS-PEG2-HS-(vc-PABA-Ahx-May)2 6 (maytansinoid payload); average DAR 3.85
B5: labetuzumab-3 (antibody, human IgG1, kappa, V domains shown)
VH: EVQLVESGGGVVQPGRSLRLSCSASGFDFTTYWMSWVRQAPGKGLEWIGEIHPDSSTINYAPSLKDRFTISRDNAKNTLFLQMDSLRPEDTGVYFCASLYFGFPWFAYWGQGTPVTVSS
VL: DIQLTQSPSSLSASVGDRVTITCKASQDVGTSVAWYQQKPGKAPKLLIYWTSTRHTGVPSRFSGSGSGTDFTFTISSLQPEDIATYYCQQYSLYRSFGQGTKVEIKR
modifications: heavy-chain glycan trimmed to core GlcNAc, 6-N3-GalNAc attached and reacted with BCN-HS-PEG2-HS-(va-PAB-Ex)2 3 (exatecan payload); average DAR 3.90
B6: labetuzumab (antibody, human IgG1, kappa, V domains shown)
VH: B5 VH
VL: B5 VL
notes: IgG transiently expressed in CHO K1 cells; also called labetuzumab (II); hMN-14
B7: B12-3 (antibody, human IgG1, kappa, V domains shown)
VH: QVQLVQSGAEVKKPGASVKVSCQASGYRFSNFVIHWVRQAPGQRFEWMGWINPYNGNKEFSAKFQDRVTFTADTSANTAYMELRSLRSADTAVYYCARVGPYSWDDSPQDNYYMDVWGKGTTVIVSS
VL: EIVLTQSPGTLSLSPGERATFSCRSSHSIRSRRVAWYQHKPGQAPRLVIHGVSNRASGISDRFSGSGSGTDFTLTITRVEPEDFALYYCQVYGASSYTFGQGTKLERKR
modifications: heavy-chain glycan trimmed to core GlcNAc, 6-N3-GalNAc attached and reacted with BCN-HS-PEG2-HS-(va-PAB-Ex)2 3 (exatecan payload); average DAR 3.75

How the values were obtained:
CEACAM5 on MKN-45 cells = molecular target: T1, CEACAM5 on MKN-45 cells (UniProt P06731 35-702, limits assumed); assay: cell-based or functional assay
T1 sequence (looked up): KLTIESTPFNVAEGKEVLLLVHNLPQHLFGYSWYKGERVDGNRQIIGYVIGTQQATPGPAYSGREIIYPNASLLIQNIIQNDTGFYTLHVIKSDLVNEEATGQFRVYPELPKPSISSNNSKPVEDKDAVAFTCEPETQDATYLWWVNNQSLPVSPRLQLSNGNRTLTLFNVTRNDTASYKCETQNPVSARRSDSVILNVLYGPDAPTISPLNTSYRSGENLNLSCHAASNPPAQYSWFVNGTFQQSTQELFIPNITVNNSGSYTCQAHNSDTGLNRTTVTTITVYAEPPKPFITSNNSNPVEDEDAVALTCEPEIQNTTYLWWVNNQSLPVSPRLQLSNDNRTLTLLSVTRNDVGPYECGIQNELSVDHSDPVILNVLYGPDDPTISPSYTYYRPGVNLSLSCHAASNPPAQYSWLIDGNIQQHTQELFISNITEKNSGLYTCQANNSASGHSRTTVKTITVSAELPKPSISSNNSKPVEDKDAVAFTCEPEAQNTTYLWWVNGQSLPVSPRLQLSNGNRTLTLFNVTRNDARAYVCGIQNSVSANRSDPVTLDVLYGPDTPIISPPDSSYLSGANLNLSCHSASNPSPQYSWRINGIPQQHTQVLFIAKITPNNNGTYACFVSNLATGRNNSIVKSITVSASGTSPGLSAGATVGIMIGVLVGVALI

[1] = molecular target: T2, human CEACAM6 (CD66c protein, His Tag, Sino Biological) (human, UniProt P40199 35-320); assay: ELISA, His-tagged antigen on nickel NTA plate, anti-human IgG-HRP detection
T2 construct: Bought His-tagged protein captured on nickel NTA plates; also called hCEACAM6; hCD66c; not shown: His tag
T2 sequence (looked up): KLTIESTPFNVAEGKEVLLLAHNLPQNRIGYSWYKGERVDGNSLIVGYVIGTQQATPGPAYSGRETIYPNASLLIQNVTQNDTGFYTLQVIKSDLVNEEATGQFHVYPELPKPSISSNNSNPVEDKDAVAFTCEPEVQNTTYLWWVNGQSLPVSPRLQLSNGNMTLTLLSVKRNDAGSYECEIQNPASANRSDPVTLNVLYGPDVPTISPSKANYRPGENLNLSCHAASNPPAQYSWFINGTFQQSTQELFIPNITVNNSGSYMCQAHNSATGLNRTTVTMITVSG
Protocol: (§1) Nickel NTA plates (Pierce™ Nickel coated plated, ThermoScientific™) were washed three times prior to use. Human CEACAM5 (CD66e protein, His Tag, Sino Biological), human CEACAM6 (CD66c protein, His Tag, Sino Biological) and cynomolgus CEACAM5 (CD66e protein, His Tag, Sino Biological) were dissolved at a concentration of 0.05 μg/mL in 0.1% BSA in PBS (PBA). 100 μL was added to each well and incubated while shaking for 1 hour at room temperature. After removal, the plate was washed 3× with 0.05% Tween-20 in PBS (washing buffer). ADCs were diluted in 0.1% PBA to a final concentration of 8 μg/mL and 100 μL was added to each well (in triplo). ADCs were incubated for 1 h at room temperature. Prior to the addition of 100 μL 1:100 dilution of secondary antibody (Goat anti-human IgG, HRP conjugate, Invitrogen) the plate was washed 3× with washing buffer. The plate was incubated again for 1 h at room temperature and subsequently washed 3× with washing buffer and 3× with PBS. Finally, 100 μL TMB ELISA substrate (1 Step™ Turbo TMB ELISA substrate, ThermoScientific™) was added and incubated for 1 minute. The absorbance of the colorimetric signal was measured with Infinite® M1000 (Tecan) at 605 nm. Data was plotted corrected for the background (see FIGS. 9).

[2] = molecular target: T3, Human CEACAM5 (CD66e protein, His Tag, Sino Biological) (human, UniProt P06731 35-685); assay: as above
T3 construct: Bought His-tagged protein captured on nickel NTA plates; also called hCEACAM5; hCD66e; not shown: His tag
T3 sequence (looked up): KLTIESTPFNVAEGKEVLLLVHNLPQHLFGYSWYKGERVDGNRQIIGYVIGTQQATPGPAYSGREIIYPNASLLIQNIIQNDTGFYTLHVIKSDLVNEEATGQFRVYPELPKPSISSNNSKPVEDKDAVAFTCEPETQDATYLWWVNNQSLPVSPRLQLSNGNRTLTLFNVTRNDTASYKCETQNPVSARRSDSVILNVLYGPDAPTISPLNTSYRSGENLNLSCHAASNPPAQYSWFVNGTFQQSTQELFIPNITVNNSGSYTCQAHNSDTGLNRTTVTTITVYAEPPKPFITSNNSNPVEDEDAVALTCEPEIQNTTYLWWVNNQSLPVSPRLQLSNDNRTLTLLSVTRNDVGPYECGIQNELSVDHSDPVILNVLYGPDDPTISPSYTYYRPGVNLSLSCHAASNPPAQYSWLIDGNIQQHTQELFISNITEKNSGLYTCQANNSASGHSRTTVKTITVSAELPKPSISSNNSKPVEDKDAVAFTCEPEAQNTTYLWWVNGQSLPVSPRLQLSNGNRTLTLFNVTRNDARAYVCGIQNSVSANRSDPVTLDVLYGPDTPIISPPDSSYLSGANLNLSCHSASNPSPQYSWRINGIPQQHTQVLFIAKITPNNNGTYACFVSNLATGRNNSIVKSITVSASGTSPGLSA
Protocol: as §1

Binder	MKN-45, IC50 (CEACAM5 on MKN-45 cells) [nM]	binding result [1]	binding result [2]
B1	2.6	–	–
B2	–	no binding (tested: 8 µg/mL)	–
B3	3.4	–	–
B4	0.88	–	–
B5	6.5	–	–
B6	–	no binding (tested: 8 µg/mL)	binds
B7	> 100	–	–
